The source of these data is patent US20250136721A1 (GlaxoSmithKline, published 2025).

In test [1] the target is pre-existing anti-VH ADA in human serum. The test is described as follows: ADA confirmation assay (MSD): 10 ug/mL test material against labelled DOM1H-131-206, mean of 10 sera.
The target is the same in test [2]. The description is as above. This is another data set of the same source.
The target is the same in test [3]. As to the kind of experiment: ADA confirmation assay (MSD): 10 ug/mL test material against labelled DOM1H-131-206; share of 10 ADA-positive sera with binding.
Test [4] has the same target. Described as above. The source holds these as a separate data set.
The target is the same in test [5]. As to the kind of experiment: ADA confirmation assay (MSD) described previously, mean of 10 donor sera.
Test [6] deals with T1, Recombinant human TNFR1-Fc (human, UniProt P19438 30-211, limits assumed).
T1 construct: bought reagent; also called hTNFR1:Fc; not shown: Fc part; not described
T1 sequence (looked up): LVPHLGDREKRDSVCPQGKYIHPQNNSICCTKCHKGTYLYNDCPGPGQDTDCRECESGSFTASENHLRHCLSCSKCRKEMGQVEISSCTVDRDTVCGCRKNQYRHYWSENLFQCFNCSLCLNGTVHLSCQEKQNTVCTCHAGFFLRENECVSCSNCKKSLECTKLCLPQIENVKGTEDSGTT
As to the kind of experiment: ELISA: dAb on coated recombinant human TNFR1-Fc, anti-Vh detection. On the technique in general: In an ELISA, binding on a coated surface is turned into a signal by an enzyme label.

Like-named read-outs stand apart in the source and are kept apart here.

A word on the EC50: it is the concentration needed to bring the measured effect to its halfway point.

B1: DOM1H-131-206 C-terminal AST (protein)
VH: EVQLLESGGGLVQPGGSLRLSCAASGFTFAHETMVWVRQAPGKGLEWVSHIPPDGQDPFYADSVKGRFTISRDNSKNTLYLQMNSLRAEDTAVYHCALLPKRGPWFDYWGQGTLVTVSSAST
As for B1, the results for the Mean % inhibition of signal in confirmation assay in test [1] and in test [2] were 26.4% and 35%, respectively. The % subjects with ADA binding (10 subjects) (% of subjects) in test [3] worked out at 50; in test [4], 20.

B2: DOM10H-53-567 C-terminal A (protein)
VH: GVQLLESGGGLVQPGGSLRLSCAASGFVFAWYDMGWVRQAPGKGLEWVSSIDWHGEVTYYADSVKGRFTISRDNSKNTLYLQMNSLRAEDTAVYYCATAEDEPGYDYWGQGTLVTVSSA
With B2, the % inhibition in confirmation assay in test [5] stood at 12.8%.

B3: DOM10H-53-567 C-terminal AST (protein)
VH: GVQLLESGGGLVQPGGSLRLSCAASGFVFAWYDMGWVRQAPGKGLEWVSSIDWHGEVTYYADSVKGRFTISRDNSKNTLYLQMNSLRAEDTAVYYCATAEDEPGYDYWGQGTLVTVSSAST
In turn, B3 returned a % inhibition in confirmation assay in test [5] of 29%.

B4: DOM10H-53-567 (protein)
VH: GVQLLESGGGLVQPGGSLRLSCAASGFVFAWYDMGWVRQAPGKGLEWVSSIDWHGEVTYYADSVKGRFTISRDNSKNTLYLQMNSLRAEDTAVYYCATAEDEPGYDYWGQGTLVTVSS
Molecule B4 yielded a % inhibition in confirmation assay in test [5] of 95.1%.

B5: DOM10H-53-567 C-terminal ASTKG (protein)
VH: GVQLLESGGGLVQPGGSLRLSCAASGFVFAWYDMGWVRQAPGKGLEWVSSIDWHGEVTYYADSVKGRFTISRDNSKNTLYLQMNSLRAEDTAVYYCATAEDEPGYDYWGQGTLVTVSSASTKG
As to B5, the % inhibition in confirmation assay in test [5] was found to be 13.4%.

B6: DOM1H-131-206 G44E (other, name in Kabat numbering)
VH: EVQLLESGGGLVQPGGSLRLSCAASGFTFAHETMVWVRQAPGKELEWVSHIPPDGQDPFYADSVKGRFTISRDNSKNTLYLQMNSLRAEDTAVYHCALLPKRGPWFDYWGQGTLVTVSS
notes: VH dAb variant
For B6, the 50% effective concentration (EC50) in test [6] amounted to 860 pM. This molecule gave a Mean % inhibition of signal in confirmation assay in test [1] of 99.5%. Also, the % subjects with ADA binding (10 subjects) (% of subjects) in test [3] was found to be 100.

B7: DOM1H-131-206 G44E, L108Q (other, name in Kabat numbering)
VH: EVQLLESGGGLVQPGGSLRLSCAASGFTFAHETMVWVRQAPGKELEWVSHIPPDGQDPFYADSVKGRFTISRDNSKNTLYLQMNSLRAEDTAVYHCALLPKRGPWFDYWGQGTQVTVSS
notes: VH dAb variant
B7: the EC50 in test [6] stood at 1640 pM. Also, in test [1], the Mean % inhibition of signal in confirmation assay is 91.3%. For the same molecule, the % subjects with ADA binding (10 subjects) (% of subjects) in test [3] turned out to be 100.

B8: DOM1H-131-206 P14A, G44E (other, name in Kabat numbering)
VH: EVQLLESGGGLVQAGGSLRLSCAASGFTFAHETMVWVRQAPGKELEWVSHIPPDGQDPFYADSVKGRFTISRDNSKNTLYLQMNSLRAEDTAVYHCALLPKRGPWFDYWGQGTLVTVSS
notes: VH dAb variant
For the molecule B8, the concentration giving a half-maximal response (EC50) in test [6] amounted to 2030 pM. For the same molecule, the Mean % inhibition of signal in confirmation assay in test [1] amounted to 61.6%. Besides, the % subjects with ADA binding (10 subjects) (% of subjects) in test [3] was 100.

B9: DOM1H-131-206 H91S (other, name in Kabat numbering)
VH: EVQLLESGGGLVQPGGSLRLSCAASGFTFAHETMVWVRQAPGKGLEWVSHIPPDGQDPFYADSVKGRFTISRDNSKNTLYLQMNSLRAEDTAVYSCALLPKRGPWFDYWGQGTLVTVSS
notes: VH dAb variant
For B9, the EC50 in test [6] came to 960 pM. Moreover, the Mean % inhibition of signal in confirmation assay in test [1] was 99.4%. The % subjects with ADA binding (10 subjects) (% of subjects) in test [3] amounted to 100.

B10: DOM1H-131-206 R83A (other, name in Kabat numbering)
VH: EVQLLESGGGLVQPGGSLRLSCAASGFTFAHETMVWVRQAPGKGLEWVSHIPPDGQDPFYADSVKGRFTISRDNSKNTLYLQMNSLAAEDTAVYHCALLPKRGPWFDYWGQGTLVTVSS
notes: VH dAb variant
On to B10, for which the EC50 in test [6] worked out at 760 pM. In test [1], the Mean % inhibition of signal in confirmation assay turned out to be 99.3%. Further, the % subjects with ADA binding (10 subjects) (% of subjects) in test [3] came out at 100.

B11: DOM1H-131-206 P14A, H91S (other, name in Kabat numbering)
VH: EVQLLESGGGLVQAGGSLRLSCAASGFTFAHETMVWVRQAPGKGLEWVSHIPPDGQDPFYADSVKGRFTISRDNSKNTLYLQMNSLRAEDTAVYSCALLPKRGPWFDYWGQGTLVTVSS
notes: VH dAb variant
For B11, the half-maximal effective concentration (EC50) in test [6] worked out at 750 pM. This molecule also registered a Mean % inhibition of signal in confirmation assay in test [1] of 50.2%. The same molecule yielded a % subjects with ADA binding (10 subjects) (% of subjects) in test [3] of 60.

B12: DOM1H-131-206 K43A (other, name in Kabat numbering)
VH: EVQLLESGGGLVQPGGSLRLSCAASGFTFAHETMVWVRQAPGAGLEWVSHIPPDGQDPFYADSVKGRFTISRDNSKNTLYLQMNSLRAEDTAVYHCALLPKRGPWFDYWGQGTLVTVSS
notes: VH dAb variant
As to B12, in test [6], the EC50 was 670 pM. The same molecule showed a Mean % inhibition of signal in confirmation assay in test [1] of 99.5%. The same molecule yielded a % subjects with ADA binding (10 subjects) (% of subjects) in test [3] of 100.

B13: DOM1H-131-206 P41A (other, name in Kabat numbering)
VH: EVQLLESGGGLVQPGGSLRLSCAASGFTFAHETMVWVRQAAGKGLEWVSHIPPDGQDPFYADSVKGRFTISRDNSKNTLYLQMNSLRAEDTAVYHCALLPKRGPWFDYWGQGTLVTVSS
notes: VH dAb variant
Regarding B13, the concentration for a half-maximal effect (EC50) in test [6] stood at 590 pM. Also, the Mean % inhibition of signal in confirmation assay in test [1] was 87.3%. Further, the % subjects with ADA binding (10 subjects) (% of subjects) in test [3] is 100.

B14: DOM1H-131-206 G44E, H91S (other, name in Kabat numbering)
VH: EVQLLESGGGLVQPGGSLRLSCAASGFTFAHETMVWVRQAPGKELEWVSHIPPDGQDPFYADSVKGRFTISRDNSKNTLYLQMNSLRAEDTAVYSCALLPKRGPWFDYWGQGTLVTVSS
notes: VH dAb variant
B14: the 50% effective concentration (EC50) in test [6] was determined as 3500 pM. The molecule further showed a Mean % inhibition of signal in confirmation assay in test [1] of 99.1%. This molecule showed a % subjects with ADA binding (10 subjects) (% of subjects) in test [3] of 100.

B15: DOM10H-53-567 C-terminal ASTK (protein)
VH: GVQLLESGGGLVQPGGSLRLSCAASGFVFAWYDMGWVRQAPGKGLEWVSSIDWHGEVTYYADSVKGRFTISRDNSKNTLYLQMNSLRAEDTAVYYCATAEDEPGYDYWGQGTLVTVSSASTK
For the molecule B15, in test [5], the % inhibition in confirmation assay was 27.7%.

B16: DOM1H-131-206 P14T + C-terminal A (protein, name in Kabat numbering)
VH: EVQLLESGGGLVQTGGSLRLSCAASGFTFAHETMVWVRQAPGKGLEWVSHIPPDGQDPFYADSVKGRFTISRDNSKNTLYLQMNSLRAEDTAVYHCALLPKRGPWFDYWGQGTLVTVSSA
As for B16, the Mean % inhibition of signal in confirmation assay in test [2] came to 33%. This molecule also registered a % subjects with ADA binding (10 subjects) (% of subjects) in test [4] of 20.

B17: DOM10H-53-567 C-terminal AS (protein)
VH: GVQLLESGGGLVQPGGSLRLSCAASGFVFAWYDMGWVRQAPGKGLEWVSSIDWHGEVTYYADSVKGRFTISRDNSKNTLYLQMNSLRAEDTAVYYCATAEDEPGYDYWGQGTLVTVSSAS
In the case of B17, in test [5], the % inhibition in confirmation assay was 14.8%.
